Results as given in patent US20260133210A1, “CELL-FREE BIOSENSORS FOR IN VITRO DETECTION OF TARGET MOLECULES” (priority 2022, published 2026).

What was measured:
[1] = test system: cell-free protein synthesis; experiment: Titration of analyte against an unregulated reporter plasmid (pT7-sfGFP) in a cell-free reaction; assay type: biochemical, E. coli; conditions: 100 μM CuSO4
Procedure: A series of tuning experiments are next used to optimize the sensor. First, the optimal concentration of the aTF (CueR) is found for the non-cascaded sensor (e.g., pCue-sfGFP) through a series of ratiometric titrations between the aTF-enriched extract and the blank extract in both the presence and absence of analyte (see e.g., the data in FIG. 7). This experiment is an isothermal cell-free gene expression reaction held at 30° C. in a plate reader for […] using an established set of physiochemical conditions to maximize protein production in general. It may also be necessary to determine the concentration of analyte that saturates the cell-free sensor without inhibiting transcription and translation in vitro, which can be done with a simple titration of analyte against an unregulated reporter plasmid (e.g., pT7-sfGFP).

[2] = test system: pdt-tagged sfGFP
[3] = test system: PbCl2; experiment: Hand-validation of top PbrR variants from the SSM library screen; assay type: biochemical, E. coli; conditions: top 10 variants with the highest fold change from each lead concentration
Description: The top 10 variants with the highest fold change from each lead concentration were hand-validated to validate the results from the SSM library screen.

[4] = test system: lead; experiment: Enriched extract PbrR lead sensors; assay type: biochemical, E. coli; conditions: FIG. 40 and 41
Procedure: Enriched extract is made by pre-expressing the transcription factor in the E. coli strain before lysing to generate the extract. […] It was also determined that a catechol reporter can be used for improved sensor output. This works by having the PbrR transcription factor bind to PbrO and drive expression of an enzyme that catalyzes a colorimetric change in catechol.

O=S(=O)([O-])[O-].[Cu+2] [CuSO4]
effect on cell-free protein synthesis [1]: shuts down cell-free protein synthesis

mf-Lon
decay of sfGFP signal (protein degradation) on mixing extracts [2]: Increasing the concentration of mf-Lon and supplying additional ATP (a co-substrate for the reaction) results in some signal decay

B1: M60F (protein)
chain: MNIQIGELAKRTACPVVTIRFYEQEGLLPPPGRSRGNFRLYGEEHVERLQFIRHCRSLDFPLSDVRTLLSYRKRPDQDCGEVNMLLDEHIRQVESRIGALLELKHHLVELREACSGARPAQSCGILQGLSDCVCDTRGTTAHPSD
modifications: Cupriavidus metallidurans
behaviour in the hand-validated SSM results [3]: bind the promoter regardless of whether or not the ligand (lead) is present

B2: M60L (protein)
chain: MNIQIGELAKRTACPVVTIRFYEQEGLLPPPGRSRGNFRLYGEEHVERLQFIRHCRSLDLPLSDVRTLLSYRKRPDQDCGEVNMLLDEHIRQVESRIGALLELKHHLVELREACSGARPAQSCGILQGLSDCVCDTRGTTAHPSD
modifications: Cupriavidus metallidurans
behaviour in the hand-validated SSM results [3]: promising

B3: G128I, D64K, M60L, and P61N: quadruple variant of PbrR (SEQ ID NO: 47) (protein)
chain: MNIQIGELAKRTACPVVTIRFYEQEGLLPPPGRSRGNFRLYGEEHVERLQFIRHCRSLDLNLSKVRTLLSYRKRPDQDCGEVNMLLDEHIRQVESRIGALLELKHHLVELREACSGARPAQSCGILQILSDCVCDTRGTTAHPSD
modifications: Cupriavidus metallidurans
lead detection in enriched extract [4]: can detect lead at the limit of detection
